The text below walks through data of article PMC5380960.

The target of this experiment is LH2-G1 (wild-type LH2 with the N-terminal fragment of Gaussia luciferase fused to its C-terminus) (UniProt O00469). Kind of experiment: split reporter (BiFC, NanoBiT); Gaussia luciferase protein-fragment complementation; LH2-G1 and FKBP65-G2 plasmids co-transfected 1:1 into 293F cells, 48 h, passive lysis buffer, luciferase activity of total cell lysates with 20 μM native coelenterazine.
UniProt O00469, sequence (O00469 26-737): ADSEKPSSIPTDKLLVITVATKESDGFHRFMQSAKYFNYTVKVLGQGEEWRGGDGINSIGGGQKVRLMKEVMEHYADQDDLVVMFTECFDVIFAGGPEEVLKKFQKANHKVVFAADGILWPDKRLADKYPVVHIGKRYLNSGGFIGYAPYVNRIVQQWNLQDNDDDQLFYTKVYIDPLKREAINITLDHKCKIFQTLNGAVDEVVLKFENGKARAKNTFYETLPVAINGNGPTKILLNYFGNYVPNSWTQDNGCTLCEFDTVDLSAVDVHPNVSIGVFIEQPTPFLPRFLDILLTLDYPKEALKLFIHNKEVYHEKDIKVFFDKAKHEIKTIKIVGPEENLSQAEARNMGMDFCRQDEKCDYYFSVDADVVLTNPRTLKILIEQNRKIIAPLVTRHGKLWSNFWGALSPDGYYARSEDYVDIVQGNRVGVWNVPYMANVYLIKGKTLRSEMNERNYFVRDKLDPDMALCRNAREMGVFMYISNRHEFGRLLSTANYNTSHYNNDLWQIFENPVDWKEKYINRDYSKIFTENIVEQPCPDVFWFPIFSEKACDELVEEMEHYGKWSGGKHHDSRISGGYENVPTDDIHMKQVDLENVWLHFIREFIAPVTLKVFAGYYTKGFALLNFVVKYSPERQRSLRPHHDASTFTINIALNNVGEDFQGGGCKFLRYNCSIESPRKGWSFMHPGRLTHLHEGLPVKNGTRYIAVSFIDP

“FKBP65-G2 (FKBP65 with the C-terminal fragment of Gaussia luciferase fused to its C-terminus) (from UniProt Q96AY3 27-582) (enzyme)”: the fold luciferase activity of co-transfected cells over either vector alone was determined as 800 fold.
